Data taken from patent US20230302148A1, “PHARMACEUTICAL COMPOSITION COMPRISING LONG-ACTING CONJUGATE OF TRIPLE GLUCAGON/GLP-1/GIP RECEPTOR AGONIST” (HANMI PHARM. CO., LTD., priority 2020, published 2023).
Bridges are numbered along the chain shown (N, C = ends). Where no end group is shown, it is not given here. [ ]: non-standard residue; d: D form. The star is where a group is joined. Acetyl(2-(4-imidazolyl)) = O=C(Cc1c[nH]cn1)*; Aib = CC(C)(N)C(=O)O

Key:
Test in all cases: cell-based or functional assay
human GIP receptor = biological target: T1, human GIP receptor (human, UniProt P48546 22-466)
T1 sequence (looked up): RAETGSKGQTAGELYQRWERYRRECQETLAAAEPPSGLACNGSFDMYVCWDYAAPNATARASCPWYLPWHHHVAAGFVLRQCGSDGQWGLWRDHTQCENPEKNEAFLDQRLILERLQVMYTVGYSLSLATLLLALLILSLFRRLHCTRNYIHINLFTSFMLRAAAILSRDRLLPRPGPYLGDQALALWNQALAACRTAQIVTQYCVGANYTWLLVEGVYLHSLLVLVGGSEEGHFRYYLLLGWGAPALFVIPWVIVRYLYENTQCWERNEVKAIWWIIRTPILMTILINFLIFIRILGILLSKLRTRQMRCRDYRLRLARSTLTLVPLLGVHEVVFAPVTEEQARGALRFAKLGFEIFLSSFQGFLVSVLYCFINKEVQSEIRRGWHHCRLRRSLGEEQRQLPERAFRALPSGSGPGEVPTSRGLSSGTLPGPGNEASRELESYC

human GLP-1 receptor = human GLP-1 receptor (human, UniProt P43220 24-463)
human GCG receptor = human GCG receptor (human, UniProt P47871 26-477)
Chain of human GCG receptor (P47871 26-477): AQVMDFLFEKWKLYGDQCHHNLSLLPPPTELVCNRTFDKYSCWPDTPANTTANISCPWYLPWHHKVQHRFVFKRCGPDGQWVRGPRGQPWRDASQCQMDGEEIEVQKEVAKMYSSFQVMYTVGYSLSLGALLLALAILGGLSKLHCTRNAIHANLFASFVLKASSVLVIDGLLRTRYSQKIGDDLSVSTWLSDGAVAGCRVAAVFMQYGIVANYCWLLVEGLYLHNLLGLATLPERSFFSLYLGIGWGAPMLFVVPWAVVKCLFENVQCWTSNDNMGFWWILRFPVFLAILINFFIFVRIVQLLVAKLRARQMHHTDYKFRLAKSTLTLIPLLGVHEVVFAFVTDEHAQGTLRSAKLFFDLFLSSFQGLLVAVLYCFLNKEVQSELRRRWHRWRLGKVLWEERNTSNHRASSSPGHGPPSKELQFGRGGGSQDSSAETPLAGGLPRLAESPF

Binder	In vitro activity relative to native peptide (%) vs. GIP (human GIP receptor) [%]	In vitro activity relative to native peptide (%) vs. GLP-1 (human GLP-1 receptor) [%]	In vitro activity relative to native peptide (%) vs. Glucagon (human GCG receptor) [%]
Y[Aib]QGTFTSDYSKALDEKAAKEFVNWLLDHHPSSGQPPPSC (bridge 16-20) [triple agonist of SEQ ID NO: 98]	47.1	28.1	8.2
Y[Aib]QGTFTSDYSKALDEKAAKDFVNWLLDHHPSSGQPPPSC (lactam 16-20) [triple agonist of SEQ ID NO: 99]	57.7	20.9	14.9
Y[Aib]QGTFTSDYSKALDEKAAKEFVQWLLDQHPSSGQPPPSC (bridge 16-20) [triple agonist of SEQ ID NO: 100]	118	42.2	12.7
Y[Aib]QGTFTSDYSKALDEKAAKEFVNWLLDQHPSSGQPPPSC (bridge 16-20) [triple agonist of SEQ ID NO: 101]	40.1	23.2	13.9
Y[Aib]QGTFTSDYSKALDEKAAKDFVNWLLDQHPSSGQPPPSC (bridge 16-20) [triple agonist of SEQ ID NO: 102]	58	23.3	29.5
[Acetyl(2-(4-imidazolyl))]GEGTFTSDLSKYLDSRRQQLFVQWLKAGGPSSGAPPPSHG [triple agonist of SEQ ID NO: 11]	< 0.1	1.4	< 0.1
[Acetyl(2-(4-imidazolyl))]GEGTFISDLSKYMDEQAVQLFVEWLMAGGPSSGAPPPSHG [triple agonist of SEQ ID NO: 12]	< 0.1	0.4	< 0.1
H[Aib]QGTFTSDVSSYLDGQAQKEFIAWLVKGC [triple agonist of SEQ ID NO: 2]	< 0.1	5.9	< 0.1
[Acetyl(2-(4-imidazolyl))]GQGTFTSDYSIQLDEIAVRDFVEWLKNGGPSSGAPPPSHG [triple agonist of SEQ ID NO: 14]	< 0.1	28	< 0.1
[Acetyl(2-(4-imidazolyl))]GQGTFTSDLSKQMDSEAQQLFIEWLKNGGPSSGAPPPSHG [triple agonist of SEQ ID NO: 16]	< 0.1	2.1	< 0.1
[Acetyl(2-(4-imidazolyl))]GQGTFTSDLSKQMDEERAREFIEWLLAQKPSSGAPPPSHG [triple agonist of SEQ ID NO: 17]	< 0.1	0.2	< 0.1
[Acetyl(2-(4-imidazolyl))]GQGTFTSDLSKQMDSERAREFIEWLKNTGPSSGAPPPSHG [triple agonist of SEQ ID NO: 18]	< 0.1	< 0.1	< 0.1
